Assay results reported in the supplement of paper PMC9233669.
Fewer inactive variants are shown than the library holds.

What was measured:
biotinyl-Met-oxazolone = assay: self-aminoacylation, catalytic enhancement (BMO) (fold over background); higher = more active; k-Seq, kA / k0A0; sequences stand for … in GGGAAUGGAUCCACAUCUACGAAUUC…UUCACUGCAGACUUGACGAAGCUG
Summary of the method: (§1)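 Working in 50 μL HEPES/NaCl/KCl/MgCl2/CaCl2 buffer with 5% acetonitrile at pH 6.9–7.0, mutagenized RNA pools (0.43 μM; 21-nt variable region) were reacted with 2–1250 μM of each biotinyl-aminoacyl-oxazolone for 90 minutes at room temperature. Streptavidin capture followed, with quantification by triplicate qPCR and Illumina sequencing. Catalytic enhancement is reported as median kA over the uncatalyzed rate, the low-activity peak of a bimodal Gaussian fit to the data.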

biotinyl-Leu-oxazolone = assay: self-aminoacylation, catalytic enhancement (BLO) (fold over background); higher = more active; k-Seq, kA / k0A0; sequences stand for … in GGGAAUGGAUCCACAUCUACGAAUUC…UUCACUGCAGACUUGACGAAGCUG
Summary of the method: as §1

biotinyl-Ile-oxazolone = assay: self-aminoacylation, catalytic enhancement (BIO) (fold over background); higher = more active; k-Seq, kA / k0A0; sequences stand for … in GGGAAUGGAUCCACAUCUACGAAUUC…UUCACUGCAGACUUGACGAAGCUG
Summary of the method: as §1

biotinyl-Val-oxazolone = assay: self-aminoacylation, catalytic enhancement (BVO) (fold over background); higher = more active; k-Seq, kA / k0A0; sequences stand for … in GGGAAUGGAUCCACAUCUACGAAUUC…UUCACUGCAGACUUGACGAAGCUG
Summary of the method: as §1

biotinyl-Phe-oxazolone = assay: self-aminoacylation, catalytic enhancement (BFO) (fold over background); higher = more active; k-Seq, kA / k0A0; sequences stand for … in GGGAAUGGAUCCACAUCUACGAAUUC…UUCACUGCAGACUUGACGAAGCUG
Summary of the method: as §1

biotinyl-Trp-oxazolone = assay: self-aminoacylation, catalytic enhancement (BWO) (fold over background); higher = more active; k-Seq, kA / k0A0; sequences stand for … in GGGAAUGGAUCCACAUCUACGAAUUC…UUCACUGCAGACUUGACGAAGCUG
Summary of the method: as §1

| Sequence | self-aminoacylation (biotinyl-Met-oxazolone) | self-aminoacylation (biotinyl-Leu-oxazolone) | self-aminoacylation (biotinyl-Ile-oxazolone) | self-aminoacylation (biotinyl-Val-oxazolone) | self-aminoacylation (biotinyl-Phe-oxazolone) | self-aminoacylation (biotinyl-Trp-oxazolone) |
| --- | --- | --- | --- | --- | --- | --- |
| AUUACCCUGGUCAACGAGGGA [Fam2.1 aminoacylation ribozyme variant] | 1.49 | 1.85 | 1.49 | 1.56 | 1.26 | 2.56 |
| AUUACCCUCCUCAUCGAGUGA [Fam2.1 aminoacylation ribozyme variant] | 3.98 | 3.99 | 1.81 | 2.08 | 15 | 4.74 |
| CUACUUCGCACAAUCGGUCUG [Fam1A.1 aminoacylation ribozyme variant] | 0.94 | 0.999 | 0.867 | 0.961 | 0.439 | 0.591 |
| UAGUUUGCUUAUAGUCGCAAG [Fam3.1 aminoacylation ribozyme variant] | 1.84 | 1.59 | 1.53 | 1.54 | 2.08 | 1.81 |
| CCACUAUUCAAGCAAUCGGUC [Fam1B.1 aminoacylation ribozyme variant] | 0.916 | 0.944 | 1.04 | 1.09 | 1.75 | 1.23 |
| CCACACCUCAAGCAGUCGGUC [Fam1B.1 aminoacylation ribozyme variant] | 1.02 | 1.47 | 1.34 | 1.6 | 0.725 | 1.02 |
| AAGUUUGCUAAUAUUCGCAGG [Fam3.1 aminoacylation ribozyme variant] | 1.68 | 1.4 | 1.35 | 1.31 | 1.32 | 2.04 |
| CCAGACUUCAAGCAACCGGUC [Fam1B.1 aminoacylation ribozyme variant] | 0.698 | 1.02 | 1.47 | 1.36 | 1.53 | 2 |
| UUUACCCUGGUCAUCGGGUGA [Fam2.1 aminoacylation ribozyme variant] | 37.3 | 37.2 | 15.2 | 16.7 | 221 | 40.3 |
| AAGUCUGCUAAUAUUCGCAAG [Fam3.1 aminoacylation ribozyme variant] | 1.49 | 1.06 | 1.11 | 1.06 | 2.54 | 1.77 |
| AUCACCCUGGCCAUCGAGUGA [Fam2.1 aminoacylation ribozyme variant] | 6.12 | 6.04 | 3.91 | 3.96 | 32 | 7.58 |
| AAGUUUGGUAAUAGUCGCUAG [Fam3.1 aminoacylation ribozyme variant] | 1.05 | 0.996 | 1.18 | 0.958 | 1.64 | 1.47 |
| CUACUUCAAACAAUCGGUCCA [Fam1A.1 aminoacylation ribozyme variant] | 0.654 | 0.633 | 0.753 | 0.757 | 1.79 | 0.907 |
| UUUCACCUAGGUCAUAGGGUG [Fam2.2 aminoacylation ribozyme variant] | 1.28 | 1.38 | 1.41 | 1.3 | 1.69 | 1.23 |
| CCACACUUCAAGCACUCGAUC [Fam1B.1 aminoacylation ribozyme variant] | 0.43 | 0.546 | 0.604 | 0.713 | 0.872 | 0.436 |
| AAGUUUGCUAAUCCUCGCAAG [Fam3.1 aminoacylation ribozyme variant] | 0.628 | 0.725 | 0.706 | 0.733 | 0.881 | 0.599 |
| AAGUUUGCUAAUAUUCGCAUG [Fam3.1 aminoacylation ribozyme variant] | 1.19 | 1.08 | 1.14 | 1.19 | 1.47 | 0.844 |
| AUUCCCCUAGAUCAUCGGGUG [Fam2.2 aminoacylation ribozyme variant] | 9.42 | 11.9 | 7.3 | 6.64 | 75.1 | 9.85 |
| CUAAUUCACACAAUCGGUCUG [Fam1A.1 aminoacylation ribozyme variant] | 0.874 | 0.85 | 0.912 | 0.771 | 0.759 | 0.598 |
| CUACUUCCAACAAUCGGUCUG [Fam1A.1 aminoacylation ribozyme variant] | 0.722 | 0.702 | 0.766 | 0.768 | 1.11 | 0.831 |
| AUUUACCUAGAUCAUCGGGUG [Fam2.2 aminoacylation ribozyme variant] | 2.35 | 3 | 2.17 | 1.88 | 12.3 | 3.38 |
| GAGUUCGCUAAUAGUCGCAAG [Fam3.1 aminoacylation ribozyme variant] | 1.91 | 2.71 | 2.8 | 2.52 | 8.98 | 2.21 |

| Sequence | self-aminoacylation (biotinyl-Met-oxazolone) | self-aminoacylation (biotinyl-Leu-oxazolone) | self-aminoacylation (biotinyl-Ile-oxazolone) | self-aminoacylation (biotinyl-Val-oxazolone) | self-aminoacylation (biotinyl-Phe-oxazolone) | self-aminoacylation (biotinyl-Trp-oxazolone) |
| --- | --- | --- | --- | --- | --- | --- |
| AUUAACCUAGGUCAGCGGGUG [Fam2.2 aminoacylation ribozyme variant] | 2.59 | 4.4 | 2.5 | 2.12 | 19 | 2.72 |
| AAGUUUGAUAUUAGUCGCAAG [Fam3.1 aminoacylation ribozyme variant] | 1.24 | 1.54 | 1.45 | 1.4 | 1.72 | 1.31 |
| GUUCUUCAAACAAUCGGUCUG [Fam1A.1 aminoacylation ribozyme variant] | 1 | 0.983 | 0.863 | 0.824 | 3.63 | 2.39 |
| AUUCACCUAGGUCGGCGGGUG [Fam2.2 aminoacylation ribozyme variant] | 6.63 | 8.86 | 4.39 | 5.49 | 41.6 | 6.02 |
| AUUACCUUGGUCAUAGAGUGA [Fam2.1 aminoacylation ribozyme variant] | 6.82 | 7.24 | 3.58 | 3.69 | 25.4 | 9.04 |
| AUGUUUGCUAAUAGUCACAAG [Fam3.1 aminoacylation ribozyme variant] | 1.17 | 1.07 | 1.24 | 1.01 | 5.37 | 2.35 |
| AAGUUUGCUAAUCGUCGCUAG [Fam3.1 aminoacylation ribozyme variant] | 0.844 | 0.87 | 0.976 | 0.834 | 1.07 | 0.871 |
| GUUACCCUGGUCAACGAGUGA [Fam2.1 aminoacylation ribozyme variant] | 5.98 | 6.2 | 3.72 | 3.22 | 42.7 | 6.61 |
| CUUCACCCAGGUCAUCGGGUG [Fam2.2 aminoacylation ribozyme variant] | 4.41 | 3.23 | 2.29 | 3.34 | 25.2 | 3.73 |
| AUUCAACAAGGUCAUCGGGUG [Fam2.2 aminoacylation ribozyme variant] | 7.02 | 7.96 | 4.09 | 3.32 | 57.7 | 5.71 |
| AAGUUUGCUCAUAGUCGCAUG [Fam3.1 aminoacylation ribozyme variant] | 0.893 | 0.903 | 1.05 | 1.04 | 0.909 | 0.856 |
| CUCCUUCAAACGAUCGGUCUG [Fam1A.1 aminoacylation ribozyme variant] | 0.833 | 1.21 | 0.833 | 0.925 | 1.86 | 2.2 |
| CUACUUCACACAAUGGGUCUG [Fam1A.1 aminoacylation ribozyme variant] | 0.826 | 0.775 | 0.865 | 0.754 | 0.647 | 0.589 |
| AUUCCCCUUGGUCAUCGGGUG [Fam2.2 aminoacylation ribozyme variant] | 20.4 | 27.4 | 13.4 | 13.7 | 165 | 18.9 |
| GUUACCCUGGUCAUCGAGGGA [Fam2.1 aminoacylation ribozyme variant] | 5.05 | 4.18 | 3.06 | 2.7 | 4.93 | 5.33 |
| AUUGCCCUGGUUAUCGAGUGA [Fam2.1 aminoacylation ribozyme variant] | 8.87 | 9.13 | 4.09 | 4.17 | 58.7 | 10.7 |
| AUUAGCCUGGUCAUCGCGUGA [Fam2.1 aminoacylation ribozyme variant] | 21.7 | 22.3 | 10.3 | 11.2 | 165 | 22.6 |
| ACACACUUAAAGCAAUCGGUC [Fam1B.1 aminoacylation ribozyme variant] | 0.917 | 0.923 | 1.08 | 1.11 | 1.23 | 0.971 |
| AUUCACCUAGGUCAUCGGCUG [Fam2.2 aminoacylation ribozyme variant] | 1.73 | 1.91 | 1.74 | 1.91 | 4.96 | 1.49 |
| AUUAUCCUAGUCAUCGAGUGA [Fam2.1 aminoacylation ribozyme variant] | 5.97 | 6.53 | 3.35 | 3.15 | 26.4 | 8.1 |
| CCAUACUUCAAGCAAUCGGAC [Fam1B.1 aminoacylation ribozyme variant] | 1.17 | 0.856 | 1.01 | 1.06 | 1.21 | 0.768 |
